Assay results as given in patent US20090062199A1, “Nogo Receptor Polypeptides and Polypeptide Fragments and Uses Thereof” (Biogen Idec MA Inc., priority 2005, published 2009).

T1: TAJ (UniProt Q9NS68 30-170, limits assumed)
T1 construct: also called TROY
T1 sequence (looked up): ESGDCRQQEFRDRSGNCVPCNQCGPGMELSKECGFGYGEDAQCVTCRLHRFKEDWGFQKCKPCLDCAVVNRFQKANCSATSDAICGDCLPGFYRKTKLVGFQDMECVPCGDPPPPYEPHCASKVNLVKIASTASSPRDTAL

T2: LINGO-1 (Homo sapiens, UniProt Q96FE5)
T2 sequence (Q96FE5 42-620): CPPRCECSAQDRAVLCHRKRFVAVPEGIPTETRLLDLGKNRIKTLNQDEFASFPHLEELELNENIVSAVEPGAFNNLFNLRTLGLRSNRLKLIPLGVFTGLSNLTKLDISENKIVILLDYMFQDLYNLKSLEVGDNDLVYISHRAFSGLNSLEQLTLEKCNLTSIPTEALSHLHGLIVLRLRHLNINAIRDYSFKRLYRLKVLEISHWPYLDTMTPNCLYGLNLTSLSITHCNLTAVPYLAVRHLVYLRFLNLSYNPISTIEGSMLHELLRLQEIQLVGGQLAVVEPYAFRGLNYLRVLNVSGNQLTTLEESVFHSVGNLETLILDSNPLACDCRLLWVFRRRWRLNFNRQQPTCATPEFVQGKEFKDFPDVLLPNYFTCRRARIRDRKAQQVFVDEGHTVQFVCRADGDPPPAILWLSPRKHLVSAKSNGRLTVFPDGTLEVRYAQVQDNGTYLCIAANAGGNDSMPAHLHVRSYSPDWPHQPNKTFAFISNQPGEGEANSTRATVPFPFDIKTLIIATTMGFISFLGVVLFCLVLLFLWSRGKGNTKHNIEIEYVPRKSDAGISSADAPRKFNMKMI

T3: OMgp (Homo sapiens, UniProt P23515)
T3 sequence (P23515 25-417): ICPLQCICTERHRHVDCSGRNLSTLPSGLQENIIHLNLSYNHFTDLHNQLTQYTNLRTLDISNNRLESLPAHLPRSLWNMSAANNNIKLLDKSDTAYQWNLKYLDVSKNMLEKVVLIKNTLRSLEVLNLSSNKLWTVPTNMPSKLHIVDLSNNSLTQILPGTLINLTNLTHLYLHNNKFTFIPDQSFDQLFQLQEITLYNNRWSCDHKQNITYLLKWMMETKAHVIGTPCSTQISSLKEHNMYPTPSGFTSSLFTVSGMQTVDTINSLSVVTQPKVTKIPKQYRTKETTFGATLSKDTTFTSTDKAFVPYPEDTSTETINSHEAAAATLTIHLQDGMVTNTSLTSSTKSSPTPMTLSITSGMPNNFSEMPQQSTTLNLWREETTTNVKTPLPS

T4: TAJ (Homo sapiens, UniProt Q9NS68)
T4 sequence (Q9NS68 30-423): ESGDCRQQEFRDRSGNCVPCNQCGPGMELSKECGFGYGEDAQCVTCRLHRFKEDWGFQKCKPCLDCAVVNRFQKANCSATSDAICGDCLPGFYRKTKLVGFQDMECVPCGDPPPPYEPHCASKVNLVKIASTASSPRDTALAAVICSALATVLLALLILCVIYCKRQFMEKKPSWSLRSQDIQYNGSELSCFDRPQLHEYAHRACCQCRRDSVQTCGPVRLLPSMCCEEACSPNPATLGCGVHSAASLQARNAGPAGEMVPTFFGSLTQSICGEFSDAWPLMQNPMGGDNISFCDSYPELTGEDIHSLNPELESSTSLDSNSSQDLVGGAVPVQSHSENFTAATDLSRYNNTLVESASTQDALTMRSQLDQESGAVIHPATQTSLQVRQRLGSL

T5: Nogo-66 (Homo sapiens, UniProt Q9NQC3)
T5 construct: Nogo-66 is a 66 amino acid peptide from NogoA
T5 sequence (Q9NQC3 1055-1120 limits assumed): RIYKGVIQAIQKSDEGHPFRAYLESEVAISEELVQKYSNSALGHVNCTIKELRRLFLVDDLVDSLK

T6: p75 (Homo sapiens, UniProt P08138)
T6 sequence (P08138 29-427): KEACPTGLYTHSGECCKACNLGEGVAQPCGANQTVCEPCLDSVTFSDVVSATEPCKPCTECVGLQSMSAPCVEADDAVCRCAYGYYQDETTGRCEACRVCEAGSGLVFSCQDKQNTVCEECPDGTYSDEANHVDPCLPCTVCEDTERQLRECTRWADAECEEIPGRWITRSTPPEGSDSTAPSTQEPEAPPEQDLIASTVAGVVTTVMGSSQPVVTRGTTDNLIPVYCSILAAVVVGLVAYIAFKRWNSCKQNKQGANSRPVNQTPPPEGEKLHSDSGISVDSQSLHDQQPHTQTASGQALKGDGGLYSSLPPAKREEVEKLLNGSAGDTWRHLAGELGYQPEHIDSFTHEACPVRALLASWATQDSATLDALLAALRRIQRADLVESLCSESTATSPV


Columns and labels:
[1] = biological target: T1, TAJ; assay: ELISA; reference is NgR1(310)
[2] = system: AP-Lingo-1; assay: Competition ELISA, anti-NgR1 antibody blocking binding of AP-Lingo-1 to FL-NgR1; settings: anti-NgR1 antibody used to block binding; FIG. 2C
Description: (§1) On size exclusion chromatography (SEC), the protein eluted as a single peak with a mass of about 80 kDa (FIG. 2B). […] See, for e.g., Shao, et al., (2005), Neuron 45, 353-359. A 10-fold higher affinity for Taj was seen using FL-NgR1 compared with the truncated versiox NgR1 (310) containing just the LRR region as described in Id.

[3] = biological target: T2, LINGO-1; assay: ELISA binding of FL-NgR1 to LINGO-1; settings: compared with truncated versions containing the LRR region alone
Description: as §1

[4] = biological target: T3, OMgp; assay: ELISA binding of FL-NgR1 to OMgp; settings: compared with truncated versions containing the LRR region alone
[5] = biological target: T4, TAJ; assay: ELISA binding of FL-NgR1 to TAJ; settings: compared with truncated versions containing the LRR region alone
Description: as §1

[6] = biological target: T5, Nogo-66; assay: ELISA binding of FL-NgR1 to Nogo-66; settings: compared with truncated versions containing the LRR region alone
[7] = system: AP-OMgp; assay: Competition ELISA, anti-NgR1 antibody blocking binding of AP-OMgp to FL-NgR1; settings: anti-NgR1 antibody used to block binding; FIG. 2C
Description: as §1

[8] = biological target: T6, p75; assay: ELISA binding of FL-NgR1 to p75; settings: compared with truncated versions containing the LRR region alone

Row | Molecule | fold higher affinity compared with NgR1 (310) [1] | binding of AP-Lingo-1 in competition ELISA [2] | binding in an ELISA assay to LINGO-1 [3] | binding in an ELISA assay to OMgp [4] | binding in an ELISA assay to TAJ [5] | binding in an ELISA assay to Nogo-66 [6] | binding of AP-OMgp in competition ELISA [7] | binding in an ELISA assay to p75 [8]
1 | Human NgR1, excluding the GPI domain (FL-NgR1, residues 27-438) with a flag tag at its N-terminus (receptor, Soluble protein expressed in CHO cells; also called human FL-NgR1; NgRI; not shown: N-terminal flag tag) CPGACVCYNEPKVTTSCPQQGLQAVPVGIPAASQRIFLHGNRISHVPAASFRACRNLTILWLHSNVLARIDAAAFTGLALLEQLDLSDNAQLRSVDPATFHGLGRLHTLHLDRCGLQELGPGLFRGLAALQYLYLQDNALQALPDDTFRDLGNLTHLFLHGNRISSVPERAFRGLHSLDRLLLHQNRVAHVHPHAFRDLGRLMTLYLFANNLSALPTEALAPLRALQYLRLNDNPWVCDCRARPLWAWLQKFRGSSSEVPCSLPQRLAGRDLKRLAANDLQGCAVATGPYHPIWTGRATDEEPLGLPKCCQPDAADKASVLEPGRPASAGNALKGRVPPGDSPPGNGSGPRHINDSPFGTLPGSAEPPLTAVRPEGSEPPGFPTSGPRRRPGCSRKNRTRSHCRLGQAGSGG | 10 fold | – | – | – | – | – | – | –
2 | FL-NgR1: Human NgR1 excluding the GPI domain, residues 27-438 (SEQ ID NO:22), N-terminal flag tag, expressed in CHO cells (protein, N-terminal FLAG tag; Human NgR-1) CPGACVCYNEPKVTTSCPQQGLQAVPVGIPAASQRIFLHGNRISHVPAASFRACRNLTILWLHSNVLARIDAAAFTGLALLEQLDLSDNAQLRSVDPATFHGLGRLHTLHLDRCGLQELGPGLFRGLAALQYLYLQDNALQALPDDTFRDLGNLTHLFLHGNRISSVPERAFRGLHSLDRLLLHQNRVAHVHPHAFRDLGRLMTLYLFANNLSALPTEALAPLRALQYLRLNDNPWVCDCRARPLWAWLQKFRGSSSEVPCSLPQRLAGRDLKRLAANDLQGCAVATGPYHPIWTGRATDEEPLGLPKCCQPDAADKASVLEPGRPASAGNALKGRVPPGDSPPGNGSGPRHINDSPFGTLPGSAEPPLTAVRPEGSEPPGFPTSGPRRRPGCSRKNRTRSHCRLGQAGSGG | – | verified the activities of FL-NgR1 | as well as or better than truncated versions containing the LRR region alone | as well as or better than truncated versions containing the LRR region alone | as well as or better than truncated versions containing the LRR region alone | as well as or better than truncated versions containing the LRR region alone | verified the activities of FL-NgR1 | as well as or better than truncated versions containing the LRR region alone
